The results in this text go back to patent publication US20180010135.

The test system of this data set is phiC31 integrase (Streptomyces phage phiC31?). The data set is described as follows: cell_activity. The following applies: in E. coli, 1% L-arabinose, 32 C, 60-120 min; intramolecular attB x attP recombination giving minicircle.

Where only a bound is given, the exact number is not on record here.

With “phiC31 attB x attP sites flanking expression cassette (pBAD.phiC31.RHB)”, the activity (% recombination) is over 97.
